Biological target: rVSV-EBOV GPΔβ17-β18 (Zaire ebolavirus (EBOV)) (UniProt Q05320)

Question: For ADI-15946 IgG (antibody), which neutralization efficiency of rVSV-EBOV GPΔβ17-β18 compared to GPWT is on record?
Answer: 10 fold

Reference: publication PMC6402988
